# Measurements published in US20260265354A1 (JIANGSU MABWELL HEALTH PHARMACEUTICAL R AND D, published 2026).
# Residue numbers refer to the chain shown, from its start.
# T1: Nectin-like-2 (UniProt Q9BY67 45-374, limits assumed)
# T1 construct: Bought recombinant protein; also called CADM1; IgSF4
# T1 sequence (looked up): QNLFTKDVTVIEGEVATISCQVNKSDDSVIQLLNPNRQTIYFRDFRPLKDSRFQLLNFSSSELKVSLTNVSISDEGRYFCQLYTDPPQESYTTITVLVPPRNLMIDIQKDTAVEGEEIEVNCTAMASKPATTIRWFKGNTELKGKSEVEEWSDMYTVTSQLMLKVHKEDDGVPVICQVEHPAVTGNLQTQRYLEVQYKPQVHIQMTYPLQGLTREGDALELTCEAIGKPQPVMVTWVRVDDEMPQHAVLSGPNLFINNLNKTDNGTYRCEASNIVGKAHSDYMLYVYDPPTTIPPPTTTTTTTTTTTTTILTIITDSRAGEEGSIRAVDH
# T2: Nectin-like-4 (UniProt Q8NFZ8 21-324, limits assumed)
# T2 construct: Bought recombinant protein; also called CADM4; IgSF4C
# T2 sequence (looked up): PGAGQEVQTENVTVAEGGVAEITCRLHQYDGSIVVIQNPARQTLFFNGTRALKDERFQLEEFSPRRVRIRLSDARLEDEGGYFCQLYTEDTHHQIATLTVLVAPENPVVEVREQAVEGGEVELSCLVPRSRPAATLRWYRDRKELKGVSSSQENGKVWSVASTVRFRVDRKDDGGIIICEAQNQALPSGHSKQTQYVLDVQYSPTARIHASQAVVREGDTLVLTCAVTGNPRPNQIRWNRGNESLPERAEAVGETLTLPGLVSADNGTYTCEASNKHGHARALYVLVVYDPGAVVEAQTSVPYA
# T3: Nectin-like-5 (UniProt P15151 21-343)
# T3 construct: Bought recombinant protein; also called CD155; PVR
# T3 sequence (looked up): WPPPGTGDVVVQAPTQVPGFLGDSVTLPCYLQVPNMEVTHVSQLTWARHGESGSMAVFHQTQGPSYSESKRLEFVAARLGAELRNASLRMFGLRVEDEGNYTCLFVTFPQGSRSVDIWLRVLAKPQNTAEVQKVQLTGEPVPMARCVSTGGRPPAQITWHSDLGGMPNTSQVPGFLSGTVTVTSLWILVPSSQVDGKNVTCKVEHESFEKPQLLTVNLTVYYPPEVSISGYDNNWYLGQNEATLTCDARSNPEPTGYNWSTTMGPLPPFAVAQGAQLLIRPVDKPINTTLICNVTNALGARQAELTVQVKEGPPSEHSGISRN
# T4: recombinant human Nectin-4 protein (human, UniProt Q96NY8 32-349)
# T4 construct: Prepared in-house (Jiangsu Mabwell) by transient transfection of CHO cells; also called PVRL-4; PRR-4
# T4 sequence: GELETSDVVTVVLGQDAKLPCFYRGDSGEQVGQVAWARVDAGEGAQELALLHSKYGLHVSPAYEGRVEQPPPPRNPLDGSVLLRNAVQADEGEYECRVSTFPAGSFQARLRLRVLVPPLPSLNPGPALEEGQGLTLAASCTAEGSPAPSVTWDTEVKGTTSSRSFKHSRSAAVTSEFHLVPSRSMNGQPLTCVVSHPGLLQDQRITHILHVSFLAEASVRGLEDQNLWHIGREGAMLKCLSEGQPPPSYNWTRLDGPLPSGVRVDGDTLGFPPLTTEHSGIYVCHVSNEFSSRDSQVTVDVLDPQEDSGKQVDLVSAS
# T5: Nectin-1 (UniProt Q15223 31-334, limits assumed)
# T5 construct: Bought recombinant protein; also called CD111; PVRL-1
# T5 sequence (looked up): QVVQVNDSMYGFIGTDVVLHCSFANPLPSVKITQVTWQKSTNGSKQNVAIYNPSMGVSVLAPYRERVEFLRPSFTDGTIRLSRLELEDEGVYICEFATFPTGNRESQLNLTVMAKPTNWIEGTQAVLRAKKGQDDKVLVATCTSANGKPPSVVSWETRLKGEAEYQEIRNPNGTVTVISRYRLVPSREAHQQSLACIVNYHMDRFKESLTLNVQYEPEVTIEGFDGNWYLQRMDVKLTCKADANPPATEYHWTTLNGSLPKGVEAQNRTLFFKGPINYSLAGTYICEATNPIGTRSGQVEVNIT
# T6: Nectin-like-1 (UniProt Q8N126 25-330, limits assumed)
# T6 construct: Bought recombinant protein; also called CADM3; IgSF4B
# T6 sequence (looked up): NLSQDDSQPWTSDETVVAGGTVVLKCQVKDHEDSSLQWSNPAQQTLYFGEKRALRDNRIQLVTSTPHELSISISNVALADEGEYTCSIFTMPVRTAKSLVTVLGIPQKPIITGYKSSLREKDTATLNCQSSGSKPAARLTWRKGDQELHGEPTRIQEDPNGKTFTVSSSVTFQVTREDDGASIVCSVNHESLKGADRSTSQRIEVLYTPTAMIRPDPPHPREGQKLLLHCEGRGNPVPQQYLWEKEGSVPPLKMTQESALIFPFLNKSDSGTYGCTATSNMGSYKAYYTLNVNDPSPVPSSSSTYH
# B1: Antibody R012 (antibody, V domains shown)
# VH: SKSVEESGGRLVTPGTPLTLTCTVSGFSLSTYAMSWVRQAPGKGLEYIGIISGRGTTYYASWLKGRFTISKTSTTVDLKITSPTTEDTATYFCARDAGISDVYTGYFNLWGQGTLVTVSS
# VL: QPVLAQLPSASAALGASAKLTCTLSSAHRTYTIAWYQQQQGEAPRYLMMLKSDGSYTKGTGVPDRFSGSSSGADRYLIISSVQAADEADYYCGADDSGGYVFGGGTQLTVTG
# notes: Rabbit monoclonal antibody from phage display; also called Nectin-4 rabbit monoclonal antibody R012; rabbit antibody R012
# B2: Antibody R036 (antibody, V domains shown)
# VH: SQSVEESGGRLVTPGTPLTLTCTVSGFSLSSYAMSWVRQAPGKGLEYIGIIGGRGTTYYAIWAKGRFTISKTSTTVDLKITSPTTEDTATYFCARDAGTTYVGTTYVATGYFNLWGQGTLVTVSS
# VL: B1 VL with A5T, L7P, R29K, M49I, K58R, A85D
# notes: Rabbit monoclonal antibody from phage display; also called Nectin-4 rabbit monoclonal antibody R036; rabbit antibody R036
# B3: Antibody MM11 (antibody, mouse IgG1, kappa, V domains shown)
# VH: DVQLQESGPGLVKPSQSLSLTCSVTGYSITSNFYWNWIRQFPGNRLEWMGYISYDGSNNYNPSLKNRISISRDTSKNQFFLKLNSVTTEDTATYYCVRADYWGQGTLVTVSA
# VL: DTVMTQTPLSLPVSLGDQASISCRSSQSLESSDGHAYLNWYLQKPGQSPQLLIYRVSNRFSGVLHRFSGSGSGTDFTLKISRVEAEDLGVYFCLQFTHVPFTFGSGTKLEIKR
# notes: Mouse monoclonal antibody from hybridoma; also called Nectin-4 mouse monoclonal antibody MM11; mouse antibody MM11
# Biological target: T1, Nectin-like-2
# Assay: ELISA, coated antigen, antibody at 10000 ng/ml
# Procedure: (§1) Coating: Nectin-1, Nectin-2, Nectin-3, Nectin-4, Nectin-like-1, Nectin-like-2, Nectin-like-3, Nectin-like-4, and Nectin-like-5 were diluted to 5 μg/ml in coating buffer (carbonate buffer, pH 9.6) respectively. A 96-well plate was coat with 100 μl per well and incubated overnight at 2-8° C.;
# (§2) Sample loading: The plate was taken out, patted dry, and washed twice with 200 μl/well of PBST, then patted dry. The Nectin-4 antibodies prepared in Example 1 (antibody MM11, antibody R012, and antibody R036) were diluted with 1% BSA/PBST to concentrations of 10 μg/ml, 1 μg/ml, 100 ng/ml, and 10 ng/ml, respectively. 1% BSA/PBST solution for dilution was set as a blank control. 100 μl per well was added to the 96-well plate, and incubated at room temperature for 2 hours;
# (§3) Reaction termination and plate reading: 100 μl/well of 1 mol/L H3PO4 was added to terminate the reaction and the plated was read. The absorbances of wells in the plate at 450 nm with 650 nm as reference wavelength were read and recorded as OD_{450 nm-650 nm}.
row,Binder,OD detection value [OD450 nm-650 nm]
1,B1,0.009
2,B2,0.008
3,B3,0.005

# Biological target: T2, Nectin-like-4
# Assay: ELISA, coated antigen, antibody at 10000 ng/ml
# Procedure: as §1, §2, §3
row,Binder,OD detection value [OD450 nm-650 nm]
1,B1,0.007
2,B2,0.006
3,B3,0.009

# Biological target: T3, Nectin-like-5
# Assay: ELISA, coated antigen, antibody at 10000 ng/ml
# Procedure: as §1, §2, §3
row,Binder,OD detection value [OD450 nm-650 nm]
1,B1,0.008
2,B2,0.009
3,B3,0.008

# Biological target: T4, recombinant human Nectin-4 protein
# Assay: ELISA, coated antigen, antibody at 10000 ng/ml
# Procedure: as §1, §2, §3
row,Binder,OD detection value [OD450 nm-650 nm]
1,B1,1.51
2,B2,1.63
3,B3,1.97

# Biological target: T5, Nectin-1
# Assay: ELISA, coated antigen, antibody at 10000 ng/ml
# Procedure: as §1, §2, §3
row,Binder,OD detection value [OD450 nm-650 nm]
1,B1,0.008
2,B2,0.006
3,B3,0.012

# Biological target: T7, Nectin-3 (UniProt Q9NQS3 58-404, limits assumed)
# T7 construct: Bought recombinant protein; also called CD113; PVRL-3
# Assay: ELISA, coated antigen, antibody at 10000 ng/ml
# Procedure: as §1, §2, §3
# T7 sequence (Q9NQS3 58-404 limits assumed): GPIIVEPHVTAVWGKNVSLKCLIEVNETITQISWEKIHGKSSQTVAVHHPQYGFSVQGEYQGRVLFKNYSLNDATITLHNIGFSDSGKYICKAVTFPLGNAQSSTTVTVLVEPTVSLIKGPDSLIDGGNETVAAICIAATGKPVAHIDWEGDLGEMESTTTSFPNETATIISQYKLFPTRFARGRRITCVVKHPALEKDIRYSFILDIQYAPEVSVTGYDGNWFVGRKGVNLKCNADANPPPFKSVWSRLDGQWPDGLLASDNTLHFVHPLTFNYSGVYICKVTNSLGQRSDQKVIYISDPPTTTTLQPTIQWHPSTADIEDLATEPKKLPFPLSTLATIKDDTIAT
row,Binder,OD detection value [OD450 nm-650 nm]
1,B1,0.007
2,B2,0.008
3,B3,0.006

# Biological target: T6, Nectin-like-1
# Assay: ELISA, coated antigen, antibody at 10000 ng/ml
# Procedure: as §1, §2, §3
row,Binder,OD detection value [OD450 nm-650 nm]
1,B1,0.009
2,B2,0.008
3,B3,0.012
